Source: patent publication US20140087995A1 (published 2014)
Numbered stars: 1 amine (or outer) side, 2 acyl side, 3 side chain; on linkers, the order of the positions; unused ones are H or OH. Bridge positions count the residues as written; N and C are the ends. Side chains are listed from the residue outwards. Ends that are not written are not given here. * marks the point of attachment. C20 diacid = O=C(O)CCCCCCCCCCCCCCCCCCC(=O)*; γGlu = O=C(O)[C@H](CCC(=O)[*:2])N[*:1]

What was measured:
[1] = target: T1, human calcitonin receptor (human, UniProt P30988 25-474); experiment: cell-based or functional assay
T1 sequence (looked up): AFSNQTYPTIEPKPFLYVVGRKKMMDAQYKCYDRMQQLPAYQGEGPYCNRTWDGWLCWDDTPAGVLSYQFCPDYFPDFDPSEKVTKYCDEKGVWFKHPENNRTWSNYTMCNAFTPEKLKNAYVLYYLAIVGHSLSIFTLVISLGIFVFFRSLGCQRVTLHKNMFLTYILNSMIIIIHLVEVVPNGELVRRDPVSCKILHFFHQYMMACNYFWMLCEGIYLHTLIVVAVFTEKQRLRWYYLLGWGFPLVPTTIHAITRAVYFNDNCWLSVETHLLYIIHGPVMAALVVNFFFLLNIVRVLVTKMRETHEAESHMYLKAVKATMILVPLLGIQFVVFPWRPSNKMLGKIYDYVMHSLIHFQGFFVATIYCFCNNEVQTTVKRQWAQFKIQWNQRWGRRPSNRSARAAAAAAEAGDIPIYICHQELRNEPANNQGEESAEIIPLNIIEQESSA

[2] = target: T2, human calcitonin receptor (human, UniProt P30988 25-474); experiment: SPA competition against 125I-calcitonin, membranes of BHK cells with human calcitonin receptor (Assay VII)
T2 construct: whole, on cells; also called hCTR; hCT
T2 sequence (looked up): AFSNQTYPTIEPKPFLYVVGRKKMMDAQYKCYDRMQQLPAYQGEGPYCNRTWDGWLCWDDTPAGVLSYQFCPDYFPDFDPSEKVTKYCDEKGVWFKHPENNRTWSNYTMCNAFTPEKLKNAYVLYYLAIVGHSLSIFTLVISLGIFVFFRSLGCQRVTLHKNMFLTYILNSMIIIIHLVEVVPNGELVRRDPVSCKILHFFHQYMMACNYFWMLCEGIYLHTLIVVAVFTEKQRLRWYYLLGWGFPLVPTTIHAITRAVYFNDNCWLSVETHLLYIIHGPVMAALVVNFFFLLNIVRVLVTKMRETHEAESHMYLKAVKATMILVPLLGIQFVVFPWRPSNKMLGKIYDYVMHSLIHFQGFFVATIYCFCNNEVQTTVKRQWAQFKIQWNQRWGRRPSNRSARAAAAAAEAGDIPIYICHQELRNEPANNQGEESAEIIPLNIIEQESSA
Method in brief: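 BHK hCTR membranes 35 ng/μL + SPA beads 0.05 mg/well; buffer 50 mM Hepes pH 7.4, 1 mM CaCl2, 5 mM MgCl₂, 0.1% OA, 0.02% Tween20. 120 min, 25° C., shaking. Scintillation count; IC50 by one-site binding competition.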

[3] = target: T2, human calcitonin receptor; experiment: ratio of IC50 at human calcitonin receptor to IC50 at human amylin receptor (SPA competition assays)
Method in brief: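 IC₅₀ values were derived by one-site competition analysis of SPA counts. Cell membranes (35 ng/μL) with SPA beads were incubated with test compounds for 120 min at 25° C in Hepes buffer, pH 7.4, containing CaCl2, MgCl₂, OA and Tween20.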

B1: N^α1-[(4S)-4-carboxy-4-(19-carboxynonadecanoylamino)butanoyl]-[Glu14,Arg17,Pro21,Pro25,Pro28,Pro29,Pro37]-h-amylin (peptide)
peptide: {C20 diacid-γGlu}-KCNTATCATQRLAEFLRHSSPNFGPILPPTNVGSNTP-NH2
modifications: disulfide 2-7
SMILES: CC[C@H](C)[C@H](NC(=O)[C@@H]1CCCN1C(=O)CNC(=O)[C@H](Cc1ccccc1)NC(=O)[C@H](CC(N)=O)NC(=O)[C@@H]1CCCN1C(=O)[C@H](CO)NC(=O)[C@H](CO)NC(=O)[C@H](Cc1c[nH]cn1)NC(=O)[C@H](CCCNC(=N)N)NC(=O)[C@H](CC(C)C)NC(=O)[C@H](Cc1ccccc1)NC(=O)[C@H](CCC(=O)O)NC(=O)[C@H](C)NC(=O)[C@H](CC(C)C)NC(=O)[C@H](CCCNC(=N)N)NC(=O)[C@H](CCC(N)=O)NC(=O)[C@@H](NC(=O)[C@H](C)NC(=O)[C@@H]1CSSC[C@H](NC(=O)[C@H](CCCCN)NC(=O)CC[C@H](NC(=O)CCCCCCCCCCCCCCCCCCC(=O)O)C(=O)O)C(=O)N[C@@H](CC(N)=O)C(=O)N[C@@H]([C@@H](C)O)C(=O)N[C@@H](C)C(=O)N[C@@H]([C@@H](C)O)C(=O)N1)[C@@H](C)O)C(=O)N[C@@H](CC(C)C)C(=O)N1CCC[C@H]1C(=O)N1CCC[C@H]1C(=O)N[C@H](C(=O)N[C@@H](CC(N)=O)C(=O)N[C@H](C(=O)NCC(=O)N[C@@H](CO)C(=O)N[C@@H](CC(N)=O)C(=O)N[C@H](C(=O)N1CCC[C@H]1C(N)=O)[C@@H](C)O)C(C)C)[C@@H](C)O
notes: Synthetic acylated analogue of human amylin; also called compound 4
[1]
  hCTR funct. EC50 (CRE luciferase reporter, BHK cells): 0.07 nM

B2: N^ε1-[(4S)-4-carboxy-4-[[(4S)-4-carboxy-4-(19-carboxynonadecanoylamino)butanoyl]amino]butanoyl]-[Arg17,Pro21,Pro27,Pro31,Pro34,Arg35]-h-amylin (peptide)
peptide: K([γGlu-γGlu-C20 diacid])CNTATCATQRLANFLRHSSPNFGAIPSSTPVGPRTY-NH2
modifications: disulfide 2-7; N-terminus assumed
SMILES: CC[C@H](C)[C@H](NC(=O)[C@H](C)NC(=O)CNC(=O)[C@H](Cc1ccccc1)NC(=O)[C@H](CC(N)=O)NC(=O)[C@@H]1CCCN1C(=O)[C@H](CO)NC(=O)[C@H](CO)NC(=O)[C@H](Cc1c[nH]cn1)NC(=O)[C@H](CCCNC(=N)N)NC(=O)[C@H](CC(C)C)NC(=O)[C@H](Cc1ccccc1)NC(=O)[C@H](CC(N)=O)NC(=O)[C@H](C)NC(=O)[C@H](CC(C)C)NC(=O)[C@H](CCCNC(=N)N)NC(=O)[C@H](CCC(N)=O)NC(=O)[C@@H](NC(=O)[C@H](C)NC(=O)[C@@H]1CSSC[C@H](NC(=O)[C@@H](N)CCCCNC(=O)CC[C@H](NC(=O)CC[C@H](NC(=O)CCCCCCCCCCCCCCCCCCC(=O)O)C(=O)O)C(=O)O)C(=O)N[C@@H](CC(N)=O)C(=O)N[C@@H]([C@@H](C)O)C(=O)N[C@@H](C)C(=O)N[C@@H]([C@@H](C)O)C(=O)N1)[C@@H](C)O)C(=O)N1CCC[C@H]1C(=O)N[C@@H](CO)C(=O)N[C@@H](CO)C(=O)N[C@H](C(=O)N1CCC[C@H]1C(=O)N[C@H](C(=O)NCC(=O)N1CCC[C@H]1C(=O)N[C@@H](CCCNC(=N)N)C(=O)N[C@H](C(=O)N[C@@H](Cc1ccc(O)cc1)C(N)=O)[C@@H](C)O)C(C)C)[C@@H](C)O
[2]
  IC50: 42.8 nM
[3]
  Ratio hCT/hAmylin binding: 48.6

B3: N^ε1-[(4S)-4-carboxy-4-[[(4S)-4-carboxy-4-(19-carboxynonadecanoylamino)butanoyl]amino]butanoyl]-[Glu14,Arg17,Pro21,Pro31,Pro34,Glu35]-h-amylin (peptide)
peptide: K([γGlu-γGlu-C20 diacid])CNTATCATQRLAEFLRHSSPNFGAILSSTPVGPETY-NH2
modifications: disulfide 2-7 (inferred)
[2]
  IC50: 1.56 nM
[3]
  Ratio hCT/hAmylin binding: 22.6

B4: N^ε1-[(4S)-4-carboxy-4-[[(4S)-4-carboxy-4-(19-carboxynonadecanoylamino)butanoyl]amino]butanoyl]-[Asp14,Arg17,Pro21,Pro27,Pro34,Arg35]-h-amylin (peptide)
peptide: K([γGlu-γGlu-C20 diacid])CNTATCATQRLADFLRHSSPNFGAIPSSTNVGPRTY-NH2
modifications: disulfide 2-7; N-terminus assumed
SMILES: CC[C@H](C)[C@H](NC(=O)[C@H](C)NC(=O)CNC(=O)[C@H](Cc1ccccc1)NC(=O)[C@H](CC(N)=O)NC(=O)[C@@H]1CCCN1C(=O)[C@H](CO)NC(=O)[C@H](CO)NC(=O)[C@H](Cc1c[nH]cn1)NC(=O)[C@H](CCCNC(=N)N)NC(=O)[C@H](CC(C)C)NC(=O)[C@H](Cc1ccccc1)NC(=O)[C@H](CC(=O)O)NC(=O)[C@H](C)NC(=O)[C@H](CC(C)C)NC(=O)[C@H](CCCNC(=N)N)NC(=O)[C@H](CCC(N)=O)NC(=O)[C@@H](NC(=O)[C@H](C)NC(=O)[C@@H]1CSSC[C@H](NC(=O)[C@@H](N)CCCCNC(=O)CC[C@H](NC(=O)CC[C@H](NC(=O)CCCCCCCCCCCCCCCCCCC(=O)O)C(=O)O)C(=O)O)C(=O)N[C@@H](CC(N)=O)C(=O)N[C@@H]([C@@H](C)O)C(=O)N[C@@H](C)C(=O)N[C@@H]([C@@H](C)O)C(=O)N1)[C@@H](C)O)C(=O)N1CCC[C@H]1C(=O)N[C@@H](CO)C(=O)N[C@@H](CO)C(=O)N[C@H](C(=O)N[C@@H](CC(N)=O)C(=O)N[C@H](C(=O)NCC(=O)N1CCC[C@H]1C(=O)N[C@@H](CCCNC(=N)N)C(=O)N[C@H](C(=O)N[C@@H](Cc1ccc(O)cc1)C(N)=O)[C@@H](C)O)C(C)C)[C@@H](C)O
notes: also called compound 130
[2]
  IC50: 127 nM
[3]
  Ratio hCT/hAmylin binding: 280

B5: N^ε1-[(4S)-4-carboxy-4-[[(4S)-4-carboxy-4-(19-carboxynonadecanoylamino)butanoyl]amino]butanoyl]-[Ser14,Arg17,Pro21,Pro27,Pro34,Glu35]-h-amylin (peptide)
peptide: K([γGlu-γGlu-C20 diacid])CNTATCATQRLASFLRHSSPNFGAIPSSTNVGPETY-NH2
modifications: disulfide 2-7; N-terminus assumed
SMILES: CC[C@H](C)[C@H](NC(=O)[C@H](C)NC(=O)CNC(=O)[C@H](Cc1ccccc1)NC(=O)[C@H](CC(N)=O)NC(=O)[C@@H]1CCCN1C(=O)[C@H](CO)NC(=O)[C@H](CO)NC(=O)[C@H](Cc1c[nH]cn1)NC(=O)[C@H](CCCNC(=N)N)NC(=O)[C@H](CC(C)C)NC(=O)[C@H](Cc1ccccc1)NC(=O)[C@H](CO)NC(=O)[C@H](C)NC(=O)[C@H](CC(C)C)NC(=O)[C@H](CCCNC(=N)N)NC(=O)[C@H](CCC(N)=O)NC(=O)[C@@H](NC(=O)[C@H](C)NC(=O)[C@@H]1CSSC[C@H](NC(=O)[C@@H](N)CCCCNC(=O)CC[C@H](NC(=O)CC[C@H](NC(=O)CCCCCCCCCCCCCCCCCCC(=O)O)C(=O)O)C(=O)O)C(=O)N[C@@H](CC(N)=O)C(=O)N[C@@H]([C@@H](C)O)C(=O)N[C@@H](C)C(=O)N[C@@H]([C@@H](C)O)C(=O)N1)[C@@H](C)O)C(=O)N1CCC[C@H]1C(=O)N[C@@H](CO)C(=O)N[C@@H](CO)C(=O)N[C@H](C(=O)N[C@@H](CC(N)=O)C(=O)N[C@H](C(=O)NCC(=O)N1CCC[C@H]1C(=O)N[C@@H](CCC(=O)O)C(=O)N[C@H](C(=O)N[C@@H](Cc1ccc(O)cc1)C(N)=O)[C@@H](C)O)C(C)C)[C@@H](C)O
notes: also called compound 120
[2]
  IC50: 3.44 nM
[3]
  Ratio hCT/hAmylin binding: 45.3

B6: N^ε1-[(4S)-4-carboxy-4-[[(4S)-4-carboxy-4-(19-carboxynonadecanoylamino)butanoyl]amino]butanoyl]-[Asp14,Arg17,Pro21,Pro27,Pro34,Glu35]-h-amylin (peptide)
peptide: K([γGlu-γGlu-C20 diacid])CNTATCATQRLADFLRHSSPNFGAIPSSTNVGPETY-NH2
modifications: disulfide 2-7
[2]
  IC50: 8.56 nM
[3]
  Ratio hCT/hAmylin binding: 49.8

B7: N^ε1-[(4S)-4-carboxy-4-[[(4S)-4-carboxy-4-(19-carboxynonadecanoylamino)butanoyl]amino]butanoyl]-[Glu14,Arg17,Pro21,Pro27,Pro34,Phe37]-h-amylin (peptide)
peptide: K([γGlu-γGlu-C20 diacid])CNTATCATQRLAEFLRHSSPNFGAIPSSTNVGPNTF-NH2
modifications: disulfide 2-7; N-terminus assumed
SMILES: CC[C@H](C)[C@H](NC(=O)[C@H](C)NC(=O)CNC(=O)[C@H](Cc1ccccc1)NC(=O)[C@H](CC(N)=O)NC(=O)[C@@H]1CCCN1C(=O)[C@H](CO)NC(=O)[C@H](CO)NC(=O)[C@H](Cc1c[nH]cn1)NC(=O)[C@H](CCCNC(=N)N)NC(=O)[C@H](CC(C)C)NC(=O)[C@H](Cc1ccccc1)NC(=O)[C@H](CCC(=O)O)NC(=O)[C@H](C)NC(=O)[C@H](CC(C)C)NC(=O)[C@H](CCCNC(=N)N)NC(=O)[C@H](CCC(N)=O)NC(=O)[C@@H](NC(=O)[C@H](C)NC(=O)[C@@H]1CSSC[C@H](NC(=O)[C@@H](N)CCCCNC(=O)CC[C@H](NC(=O)CC[C@H](NC(=O)CCCCCCCCCCCCCCCCCCC(=O)O)C(=O)O)C(=O)O)C(=O)N[C@@H](CC(N)=O)C(=O)N[C@@H]([C@@H](C)O)C(=O)N[C@@H](C)C(=O)N[C@@H]([C@@H](C)O)C(=O)N1)[C@@H](C)O)C(=O)N1CCC[C@H]1C(=O)N[C@@H](CO)C(=O)N[C@@H](CO)C(=O)N[C@H](C(=O)N[C@@H](CC(N)=O)C(=O)N[C@H](C(=O)NCC(=O)N1CCC[C@H]1C(=O)N[C@@H](CC(N)=O)C(=O)N[C@H](C(=O)N[C@@H](Cc1ccccc1)C(N)=O)[C@@H](C)O)C(C)C)[C@@H](C)O
[2]
  IC50: 2.73 nM
[3]
  Ratio hCT/hAmylin binding: 18

B8: N^ε1-[(4S)-4-carboxy-4-[[(4S)-4-carboxy-4-(19-carboxynonadecanoylamino)butanoyl]amino]butanoyl]-[Glu14,Arg17,Pro21,Pro27,Pro34,His35]-h-amylin (peptide)
peptide: K([γGlu-γGlu-C20 diacid])CNTATCATQRLAEFLRHSSPNFGAIPSSTNVGPHTY-NH2
modifications: disulfide 2-7 (inferred)
[2]
  IC50: 10.3 nM
[3]
  Ratio hCT/hAmylin binding: 27.3
